How the values were obtained:
HeLa Kyoto [1] = assay: solubility in G1/S (NP-40 vs SDS abundance) (log2 ratio); higher = more soluble; conditions: cell cycle stage: G1/S
HeLa Kyoto [2] = assay: melting temperature (median over replicates), in situ; higher = more thermally stable
HeLa Kyoto [3] = assay: solubility change mitosis vs G1/S (difference of NP-40 vs SDS log2 ratios) (log2 ratio difference); higher = more soluble in mitosis
HeLa Kyoto [4] = assay: thermal stability score vs G1/S (z-score of summed log2 fold changes over temperatures); higher = more thermally stable than in G1/S
[5] = cell cycle stage: early G1 (4.5 h after nocodazole release)
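Wherever melting temperature (median over replicates), in situ is given: HeLa Kyoto cells synchronized by double thymidine or nocodazole block, proteins quantified by TMT10plex mass spectrometry, three independent biological replicates.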
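Wherever solubility change mitosis vs G1/S (difference of NP-40 vs SDS log2 ratios) is given: synchronized HeLa Kyoto cells (double thymidine block for G1/S, nocodazole release for mitosis), protein amounts in NP-40 versus SDS lysates quantified by mass spectrometry, three biological replicates.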
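Wherever solubility in G1/S (NP-40 vs SDS abundance) is given: HeLa Kyoto cells arrested at G1/S by double thymidine block, proteins quantified by TMT10plex mass spectrometry in mild NP-40 versus SDS extracts, three biological replicates.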
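Wherever thermal stability score vs G1/S (z-score of summed log2 fold changes over temperatures) is given: synchronized HeLa Kyoto cells, proteins quantified by TMT10plex mass spectrometry, three biological replicates, mitosis taken 0.5 h after nocodazole release, G1/S directly after double thymidine block.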

In the case of “MTELQQDVEDTKPAKVLGKRESKLGSAHSEAENGVEEKKKACRSPTAQSPTPSVEADSPDQKKIISLWSKSSFDGASLASDKNDCKTESKNDPKTERKKSSSSSQYKANMHFHKLFLSVPTEEPLKQSFTCALQKEILYQGKLFVSENWICFHSKVFGKDTKISIPAFSVTLIKKTKTALLVPNALIIATVTDRYIFVSLLSRDSTYKLLKSVCGHLENTSVGNSPNPSSAENSFRADRPSSLPLDFNDEFSDLDGVVQQRRQDMEGYSSSGSQTPESENSRDFHATESQTVLNVSKGEAKPTRADAHVNRVPEGKAKSLPVQGLSETVGILHKVKSQKCPMLHHILIFYAIVVCALIISTFYMRYRINTLEEQLGLLTSIVDTHNTEQAAPSGLRSQVQFNVEVLCQELTANIVKLEKIQNNLQKLLENGD [GRAMD3]”, the “solubility in G1/S (log2)” value (HeLa Kyoto [1]) is reported as 0.0879, the melting temperature (HeLa Kyoto [2]; cell cycle stage: G1/S) is reported as 49.3 °C and the melting temperature (HeLa Kyoto [2]; cell cycle stage: mitosis) is reported as 51 °C. The “solubility change mitosis (log2)” value (HeLa Kyoto [3]) was -0.244, the thermal stability score (HeLa Kyoto [4]; [5]) was -0.258 and the thermal stability score (HeLa Kyoto [4]; cell cycle stage: mitosis) was 1.75.
In the case of “MTELQSALLLRRQLAELNKNPVEGFSAGLIDDNDLYRWEVLIIGPPDTLYEGGVFKAHLTFPKDYPLRPPKMKFITEIWHPNVDKNGDVCISILHEPGEDKYGYEKPEERWLPIHTVETIMISVISMLADPNGDSPANVDAAKEWREDRNGEFKRKVARCVRKSQETAFE [UBE2G1]”, the “solubility in G1/S (log2)” value (HeLa Kyoto [1]) is reported as 0.543, the melting temperature (HeLa Kyoto [2]; cell cycle stage: G1/S) is reported as 51.7 °C and the melting temperature (HeLa Kyoto [2]; cell cycle stage: mitosis) is reported as 53 °C. For the same sequence, the “solubility change mitosis (log2)” value (HeLa Kyoto [3]) was 0.0506, the thermal stability score (HeLa Kyoto [4]; [5]) was -0.274 and the thermal stability score (HeLa Kyoto [4]; cell cycle stage: mitosis) was 0.392.
For “MTEQAISFAKDFLAGGIAAAISKTAVAPIERVKLLLQVQHASKQIAADKQYKGIVDCIVRIPKEQGVLSFWRGNLANVIRYFPTQALNFAFKDKYKQIFLGGVDKHTQFWRYFAGNLASGGAAGATSLCFVYPLDFARTRLAADVGKSGTEREFRGLGDCLVKITKSDGIRGLYQGFSVSVQGIIIYRAAYFGVYDTAKGMLPDPKNTHIVVSWMIAQTVTAVAGVVSYPFDTVRRRMMMQSGRKGADIMYTGTVDCWRKIFRDEGGKAFFKGAWSNVLRGMGGAFVLVLYDELKKVI [SLC25A6]”, the “solubility in G1/S (log2)” value (HeLa Kyoto [1]) was -0.157, the melting temperature (HeLa Kyoto [2]; cell cycle stage: G1/S) was 57.1 °C and the melting temperature (HeLa Kyoto [2]; cell cycle stage: mitosis) was 57.4 °C. The “solubility change mitosis (log2)” value (HeLa Kyoto [3]) was 0.0142, the thermal stability score (HeLa Kyoto [4]; [5]) was -0.865 and the thermal stability score (HeLa Kyoto [4]; cell cycle stage: mitosis) was -3.48.
In the case of “MTERRRDELSEEINNLREKVMKQSEENNNLQSQVQKLTEENTTLREQVEPTPEDEDDDIELRGAAAAAAPPPPIEEECPEDLPEKFDGNPDMLAPFMAQCQIFMEKSTRDFSVDRVRVCFVTSMMTGRAARWASAKLERSHYLMHNYPAFMMEMKHVFEDPQRREVAKRKIRRLRQGMGSVIDYSNAFQMIAQDLDWNEPALIDQYHEGLSDHIQEELSHLEVAKSLSALIGQCIHIERRLARAAAARKPRSPPRALVLPHIASHHQVDPTEPVGGARMRLTQEEKERRRKLNLCLYCGTGGHYADNCPAKASKSSPAGKLPGPAVEGPSATGPEIIRSPQDDASSPHLQVMLQIHLPGRHTLFVRAMIDSGASGNFIDHEYVAQNGIPLRIKDWPILVEAIDGRPIASGPVVHETHDLIVDLGDHREVLSFDVTQSPFFPVVLGVRWLSTHDPNITWSTRSIVFDSEYCRYHCRMYSPIPPSLPPPAPQPPLYYPVDGYRVYQPVRYYYVQNVYTPVDEHVYPDHRLVDPHIEMIPGAHSIPSGHVYSLSEPEMAALRDFVARNVKDGLITPTIAPNGAQVLQVKRGWKLQVSYDCRAPNNFTIQNQYPRLSIPNLEDQAHLATYTEFVPQIPGYQTYPTYAAYPTYPVGFAWYPVGRDGQGRSLYVPVMITWNPHWYRQPPVPQYPPPQPPPPPPPPPPPPSYSTL [PEG10]”, the “solubility in G1/S (log2)” value (HeLa Kyoto [1]) is reported as 0.144, the melting temperature (HeLa Kyoto [2]; cell cycle stage: G1/S) is reported as 49.4 °C and the melting temperature (HeLa Kyoto [2]; cell cycle stage: mitosis) is reported as 49.8 °C. For the same sequence, the “solubility change mitosis (log2)” value (HeLa Kyoto [3]) was -0.00752, the thermal stability score (HeLa Kyoto [4]; [5]) was 0.275 and the thermal stability score (HeLa Kyoto [4]; cell cycle stage: mitosis) was 0.54.
“MTFQASHRSAWGKSRKKNWQYEGPTQKLFLKRNNVSAPDGPSDPSISVSSEQSGAQQPPALQVERIVDKRKNKKGKTEYLVRWKGYDSEDDTWEPEQHLVNCEEYIHDFNRRHTEKQKESTLTRTNRTSPNNARKQISRSTNSNFSKTSPKALVIGKDHESKNSQLFAASQKFRKNTAPSLSSRKNMDLAKSGIKILVPKSPVKSRTAVDGFQSESPEKLDPVEQGQEDTVAPEVAAEKPVGALLGPGAERARMGSRPRIHPLVPQVPGPVTAAMATGLAVNGKGTSPFMDALTANGTTNIQTSVTGVTASKRKFIDDRRDQPFDKRLRFSVRQTESAYRYRDIVVRKQDGFTHILLSTKSSENNSLNPEVMREVQSALSTAAADDSKLVLLSAVGSVFCCGLDFIYFIRRLTDDRKRESTKMAEAIRNFVNTFIQFKKPIIVAVNGPAIGLGASILPLCDVVWANEKAWFQTPYTTFGQSPDGCSTVMFPKIMGGASANEMLLSGRKLTAQEACGKGLVSQVFWPGTFTQEVMVRIKELASCNPVVLEESKALVRCNMKMELEQANERECEVLKKIWGSAQGMDSMLKYLQRKIDEF [CDYL]” was tested, and the “solubility in G1/S (log2)” value (HeLa Kyoto [1]) was -0.609, the melting temperature (HeLa Kyoto [2]; cell cycle stage: G1/S) was 51.4 °C and the melting temperature (HeLa Kyoto [2]; cell cycle stage: mitosis) was 51 °C. The “solubility change mitosis (log2)” value (HeLa Kyoto [3]) was 0.533, the thermal stability score (HeLa Kyoto [4]; [5]) was 2.51 and the thermal stability score (HeLa Kyoto [4]; cell cycle stage: mitosis) was 0.875.
